B1: HDV Ribozyme (parent)
chain: GGCCGGCAUGGUCCCAGCCUCCUCGCUGGCGCCGGCUGGGCAACAUUCCGAGGGGACCGUCCCCUCGGUAAUGGCGAAUGGGACCCA

Variants of B1 are the subject of this series. Put plainly: self-cleavage, relative activity (ratio to wild type); higher = more cleavage; co-transcriptional.
Take U27G G55C: the self-cleavage stood at 0.779. On to A56C G82A, for which the self-cleavage was found to be 0.684. To U9C G39A belongs 0.567; to G34C G67C, 0.123. Consider C22G G35U, for which the self-cleavage stood at 0.102. Turning to G6U G50A, the self-cleavage was found to be 0.372. Regarding C86A A87U, the self-cleavage came to 0.9. Regarding G5A A16G, the self-cleavage is 0.35.

In the case of G1U G40U, the self-cleavage was found to be 0.225. Turning to G1U G40A, the self-cleavage came to 0.426. To C41A A83G belongs 0.732; to U46G C63U, 0.813. Regarding C58A G82U, the self-cleavage was determined as 0.376. To U69G A83G belongs 0.739. Turning to C58G G73C, the self-cleavage is 0.582. As to U20C C30A, the self-cleavage worked out at 0.0923. In the case of A45G C64A, the self-cleavage stood at 0.658. Consider C30A C41G, for which the self-cleavage turned out to be 0.0875. Turning to G1A C4U, the self-cleavage came to 0.252. As to C21G U69A, the self-cleavage turned out to be 0.0426. On to C36G U65G, for which the self-cleavage worked out at 0.244.

In the case of C3G G35C, the self-cleavage stood at 1.48. C15A C48A: the self-cleavage is 0.597. Consider C32A G67U, for which the self-cleavage stood at 0.232. To G10C A42G belongs 0.151. To G50U G80U belongs 0.2. In the case of G50U G80A, the self-cleavage amounted to 0.486. To U69A A71U belongs 1.27; to C22G G28U, 0.0739. The same measure for C64U A87C: 0.971; for A16C G52C: 1.04; for C57G A78G: 0.629. Turning to C4A U9A, the self-cleavage was 0.323. The same measure for G34U G74A: 0.0821; for A42U U72G: 0.322; for C66U A87G: 0.999. To C58U A71C belongs 0.85. For U23C G55A, the self-cleavage turned out to be 0.814. Consider A51C C86G, for which the self-cleavage came out at 0.712. The same measure for G10U U27C: 0.554; for U37A C57G: 0.213; for C33A U79A: 0.128.

Take C15G C21U: the self-cleavage amounted to 0.0405. For C14G C32U, the self-cleavage was found to be 0.196. The same measure for G34C A70C: 0.123; for C22G G82C: 0.0378.

Consider C26U C85U, for which the self-cleavage was 0.935. Turning to G39A A77G, the self-cleavage came out at 0.141.

As for C19U G34C, the self-cleavage amounted to 0.0346. On to U20G C44U, for which the self-cleavage turned out to be 0.192. The same measure for C24A C86U: 0.633.

Regarding C13A A56C, the self-cleavage worked out at 0.156. With U12A C64A, the self-cleavage turned out to be 0.26. As to U27A U46A, the self-cleavage was determined as 0.831. To C15G U20A belongs 0.128; to G55A U65C, 0.863.

For A16C C22G, the self-cleavage was 0.0426. For C58G A70U, the self-cleavage was found to be 0.929.

With A43U G81C, the self-cleavage came to 0.181. A77G G80C: the self-cleavage is 0.0437.

Take C13G G52A: the self-cleavage came to 0.125.

For C19A U72A, the self-cleavage was found to be 0.0504.

For C30G C86A, the self-cleavage turned out to be 0.241. The same measure for C15G C32U: 0.437; for U27A G76A: 0.997. With G1A U37G, the self-cleavage came out at 0.158. Regarding C4A A43U, the self-cleavage was 0.0707. As for C24G C36G, the self-cleavage was determined as 0.0923. For A43G G68U, the self-cleavage stood at 0.436. To C21A C49A belongs 0.157; to G6C A45U, 0.0615. For the variant G29C G52U, the self-cleavage came out at 0. Take C26U G68C: the self-cleavage was determined as 1.03. U9C A45U: the self-cleavage stood at 0.554. On to G2A C64U, for which the self-cleavage is 0.18. For the variant C3U C30A, the self-cleavage worked out at 0.223. As for C3U C30U, the self-cleavage was 0.345. As to C7G G39C, the self-cleavage stood at 0. Take U60A A77U: the self-cleavage is 0.453.

With C18U G59C, the self-cleavage was 0.651. For U12A G17A, the self-cleavage worked out at 0.19. U20C G68C: the self-cleavage stood at 0.192. Regarding A8C U72G, the self-cleavage turned out to be 0.332. To A43U G52U belongs 0.339. The same measure for A8C G81A: 0.151. The same measure for C7G G81U: 0.0594; for A45C C66G: 0.587. On to G28U U46A, for which the self-cleavage turned out to be 0.111. Regarding C75G C86G, the self-cleavage was 0. For the variant C19A G81U, the self-cleavage turned out to be 0.133. For C63A G73C, the self-cleavage turned out to be 0.332. Regarding G53A A56G, the self-cleavage amounted to 0.875. The same measure for C24A G25C: 0.208. As for C24A G25U, the self-cleavage was found to be 0.277. In the case of U46A C61A, the self-cleavage came to 0.8.

In the case of C14U U46G, the self-cleavage was 0.875. Take G2C C15G: the self-cleavage worked out at 0. G10U A77C: the self-cleavage is 0.0396. G6A A8G: the self-cleavage turned out to be 0.554. To C36G C62A belongs 0.0791; to C63U C86G, 1.11. To G40A G52A belongs 0.858. On to C48G C57U, for which the self-cleavage worked out at 1.04.

For C32A G50C, the self-cleavage stood at 0.262. As for G1C G55U, the self-cleavage amounted to 0.203. The same measure for C48A A56U: 1.03; for C32G U46G: 0. On to G53C A87G, for which the self-cleavage worked out at 0.971. For the variant U37C A87U, the self-cleavage came to 1.14.

For the variant C32G C66U, the self-cleavage is 0.162. On to C33G A78G, for which the self-cleavage amounted to 0. As for A8C C30U, the self-cleavage turned out to be 0.415. To C30G G31A belongs 0.133; to C49G, 0.905; to C62U G74C, 0.234.

For the variant G6U U27C, the self-cleavage worked out at 0.237. C30U C62U: the self-cleavage came to 0.562.

As for U47C G50C, the self-cleavage was found to be 0.831.

As to G59U G68A, the self-cleavage was found to be 0.88. With G25A C86A, the self-cleavage amounted to 0.104. C22A C41G: the self-cleavage turned out to be 0.175. For G28A G53C, the self-cleavage came to 0.0831. Turning to G35C A78C, the self-cleavage was determined as 0.0519.

Consider G55A G81A, for which the self-cleavage was 0.535. C30U C66U: the self-cleavage was 0.544. The same measure for G17C C64U: 0.0475; for C21U G39C: 0.201; for G68U A77G: 0.578.

With C4U A8G, the self-cleavage stood at 0.762. As to C7G G38U, the self-cleavage came out at 0.0692. Take C41A A42U: the self-cleavage stood at 0.743. As for G34U G76U, the self-cleavage came out at 0.132. As for G1A C75A, the self-cleavage is 0.161. As to G38U G39U, the self-cleavage was 0.0573. For C3U G54U, the self-cleavage came out at 0.732.

In the case of C21G U60G, the self-cleavage turned out to be 0. Turning to C63G A71U, the self-cleavage is 0.712. For C63U C75U, the self-cleavage came out at 0.324. For C57U C85G, the self-cleavage is 0.984. Regarding G11U G76U, the self-cleavage amounted to 0.596. As for G6A G53A, the self-cleavage was found to be 0.874.

Consider C26G G55C, for which the self-cleavage was determined as 1.04. G11C G17U: the self-cleavage was 0.332.

As to G11U U47A, the self-cleavage was found to be 0.397. For G11U C86U, the self-cleavage is 0.415. On to G2U U20A, for which the self-cleavage was determined as 0.0563. The same measure for A43G G76C: 0.58; for C33U C86G: 0.884. For C14A G29A, the self-cleavage came to 0.115. To G10U U69A belongs 0.813; to C4A U46C, 0.111. C3A C22G: the self-cleavage turned out to be 0.0631. Take C18A G67U: the self-cleavage was 0.117. On to G25U G55U, for which the self-cleavage stood at 0.151.

With C24G A78G, the self-cleavage was determined as 0.173. As to U12G U79A, the self-cleavage was 0.939.

For U46G C62A, the self-cleavage was found to be 0.575. With C66U C84G, the self-cleavage is 0.57. Turning to C15A G68U, the self-cleavage was determined as 0.309. The same measure for G2C A77C: 0; for A16U A87C: 1.04; for U46C A78G: 0.554.

As for C15G U69C, the self-cleavage was determined as 0.65. To C13U A83G belongs 0.122. To C44U C61U belongs 0.716; to C21A G29A, 0.0875. For the variant U20A G40A, the self-cleavage was 0.0426.

Values taken from the RNAGym collection of RNA variant scans (doi:10.7554/elife.80360).
